Consider four molecules from US20210238304A1.

Values joined by “and” are separate entries in the source; they are usually repeats but may differ in a detail not shown here. Identical values can stand only once.

In test [1] the target is human mesothelin (recombinant, soluble) (human) (UniProt Q13421). Nature of the test: SPR BIAcore, parental mAb captured, mesothelin analyte. A general note: Surface plasmon resonance follows binding to a sensor surface in real time, without labels.
Test [2] has the same target. Put plainly: SPR BIAcore, captured mAb, mesothelin analyte.

Chain of human mesothelin (recombinant, soluble) (human) (Q13421 other isoform, or with tags, fused parts or gaps limits assumed): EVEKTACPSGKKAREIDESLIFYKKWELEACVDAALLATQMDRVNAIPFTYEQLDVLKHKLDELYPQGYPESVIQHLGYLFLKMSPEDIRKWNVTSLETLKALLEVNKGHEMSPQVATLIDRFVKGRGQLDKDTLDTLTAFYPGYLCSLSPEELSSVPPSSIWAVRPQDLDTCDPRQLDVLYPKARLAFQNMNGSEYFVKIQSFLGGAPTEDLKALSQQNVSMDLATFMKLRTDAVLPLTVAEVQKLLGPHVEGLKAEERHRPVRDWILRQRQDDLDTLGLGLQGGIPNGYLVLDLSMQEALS

B1: 33O11 zu (humanized anti-human mesothelin antibody) (antibody, from another filing, V domains shown)
VH: EVQLVESGGGLVQPGGSLRLSCAASGISLSSDAISWVRQAPGKGLEYIGIINGGGNTYYASWAKGRFTISRHNSKNTLYLQMNSLRAEDTAVYYCARGIQHGGGNSDYYYYGMDLWGQGTLVTVSS
VL: DIQMTQSPSSLSASVGDRVTITCQASQSISSVLSWYQQKPGKAPKLLIYLASTLASGVPSRFSGSGSGTDFTLTISSLQCEDIATYYCQTNYGTSSSNYGFAFGGGTKVEIKR
The term Kd denotes the free concentration of one partner at which half of the binding sites on the other are occupied at equilibrium, for simple one-to-one binding. As usually defined, the koff is the rate constant with which the complex falls apart. For orientation: kon means a measure of how fast the partners come together. B1: in test [1], the Kd stood at 3.4 nM, the koff was determined as 0.00065 s⁻¹ and the kon is 220000 M⁻¹ s⁻¹.

B2: 346C6 (rabbit-human chimeric anti-human mesothelin antibody) (antibody, from another filing, V domains shown)
VH: QSVEESGGRLVKPDESLTLTCTASGFSLSSYAMIWVRQAPGEGLEWIGTISTGGITYYASWAKGRFTISKTSTTVDLKITSPTTEDTATYFCARGGYAASSAYYLPYYFDLWGQGTLVTVSS
VL: AAVLTQTPSPVSAAVGGTVTISCQSSQSVYNNNNLAWFQQKPGQPPKLLIYLASTLASGVPSRFSGSGSGTQFTLTISGVQCDDAATYYCLGGCDDDADTFAFGGGTEVVVKR
Consider B2, for which, in test [2], the Kd was 0.706 nM and 0.529 nM; the koff is 0.000481 s⁻¹ and 0.000609 s⁻¹; the association rate constant (kon) was 682000 M⁻¹ s⁻¹ and 1.15e+06 M⁻¹ s⁻¹. Also, in test [1], the Kd is 1.4 nM, the koff was found to be 0.00049 s⁻¹ and the kon stood at 380000 M⁻¹ s⁻¹.

B3: 201C15 (rabbit-human chimeric anti-human mesothelin antibody) (antibody, from another filing, V domains shown)
VH: QSVKESGGRLVTPGTPLTLTCTVSGIDLSSYAMGWFRQAPGKGLEYIGTINIGGRVYYASWAKGRFTISRTSTTVDLKAPSLTAEDTATYFCARYYNGGSYDIWGPGTLVTVSL
VL: DVVMTQTPASASEPVGGTVTIKCQASESIYRVLAWYQQKPGQPPKLLIYDTSTLASGAPSRFKGSGYGTEFTLTISGVQCEDAATYYCQGGYYADSYGIAFGGGTEVVVKR
Take B3: in test [2], the Kd was 0.47 nM and 0.131 nM; the koff is 0.000129 s⁻¹ and 0.000345 s⁻¹. Further, in test [1], the Kd came out at 1.1 nM, the koff came out at 0.00026 s⁻¹ and the kon is 240000 M⁻¹ s⁻¹.

B4: 111B10 (rabbit-human chimeric anti-human mesothelin antibody) (antibody, from another filing, V domains shown)
VH: QSVEESGGRLVTPGTPLTLTCTVSGFSLNNYAMSWVRQAPGKGLEWIGSISTGGLAFYANWAKGRFTISRTSTTVDLKMTSLTTEDTATYFCGRNGGGSYIFYYFDLWGQGTLVTVSS
VL: AFELTQTPSSVEAAVGGTITIKCQASQSISSYLSWYQQKPGQPPKLLIYSASTLASGVSSRFKGSGSGTEYTLTISDLECADAATYFCQSYYDIGTSTFGGGTEVVVKR
Turning to B4, in test [1], the dissociation constant Kd was found to be 6.3 nM, the koff stood at 0.0039 s⁻¹ and the kon was 650000 M⁻¹ s⁻¹.
